In the experiment the target is FSFG-K (single FSFG site) (Saccharomyces cerevisiae, UniProt P14907). The experiment is described as follows: NMR.

B1: Kap95 (protein)
chain: STAEFAQLLENSILSPDQNIRLTSETQLKKLSNDNFLQFAGLSSQVLIDENTKLEGRILAALTLKNELVSKDSVKTQQFAQRWITQVSPEAKNQIKTNALTALVSIEPRIANAAAQLIAAIADIELPHGAWPELMKIMVDNTGAEQPENVKRASLLALGYMCESADPQSQALVSSSNNILIAIVQGAQSTETSKAVRLAALNALADSLIFIKNNMEREGERNYLMQVVCEATQAEDIEVQAAAFGCLCKIMSLYYTFMKPYMEQALYALTIATMKSPNDKVASMTVEFWSTICEEEIDIAYELAQFPQSPLQSYNFALSSIKDVVPNLLNLLTRQNEDPEDDDWNVSMSAGACLQLFAQNCGNHILEPVLEFVEQNITADNWRNREAAVMAFGSIMDGPDKVQRTYYVHQALPSILNLMNDQSLQVKETTAWCIGRIADSVAESIDPQQHLPGVVQACLIGLQDHPKVATNCSWTIINLVEQLAEATPSPIYNFYPALVDGLIGAANRIDNEFNARASAFSALTTMVEYATDTVAETSASISTFVMDKLGQTMSVDENQLTLEDAQSLQELQSNILTVLAAVIRKSPSSVEPVADMLMGLFFRLLEKKDSAFIEDDVFYAISALAASLGKGFEKYLETFSPYLLKALNQVDSPVSITAVGFIADISNSLEEDFRRYSDAMMNVLAQMISNPNARRELKPAVLSVFGDIASNIGADFIPYLNDIMALCVAAQNTKPENGTLEALDYQIKVLEAVLDAYVGIVAGLHDKPEALFPYVGTIFQFIAQVAEDPQLYSEDATSRAAVGLIGDIAAMFPDGSIKQFYGQDWVIDYIKRTRSGQLFSQATKDTARWAREQQKRQLSL
As usually defined, the Kd is a measure of binding affinity in units of concentration. Low values mean higher affinity, high ones lower affinity. In the case of B1, the Kd is > 216 µM.

(Values after article PMC4621360 (2015).)
